Results published in article PMC7207076 (Biochemistry, 2020).
Non-standard residues stand in square brackets, D forms with d. No end group written: not given here. Lys(Me3) = C[N+](C)(C)CCCC[C@H](N)C(=O)O

Columns and labels:
KDM5A1–797 [1] = molecular target: T1, KDM5A1–797 (Homo sapiens, UniProt P29375); format: biochemical; settings: for kcat: 21mer H3K4me3 peptide substrates, saturating (20 μM) effector peptide (unmodified H3 10mer, aa 1–10), means ± SEM of two independent experiments, SEM; for fold increase of KMapp relative to 21mer WT peptide: 21mer H3K4me3 peptides, PHD1 domain saturated with effector peptide; for fold increase of KMapp compared to the 18mer WT peptide: H3K4me3 basic patch (K14-K18) deletion/mutant/acetylated peptides
T1 sequence (P29375 1-797): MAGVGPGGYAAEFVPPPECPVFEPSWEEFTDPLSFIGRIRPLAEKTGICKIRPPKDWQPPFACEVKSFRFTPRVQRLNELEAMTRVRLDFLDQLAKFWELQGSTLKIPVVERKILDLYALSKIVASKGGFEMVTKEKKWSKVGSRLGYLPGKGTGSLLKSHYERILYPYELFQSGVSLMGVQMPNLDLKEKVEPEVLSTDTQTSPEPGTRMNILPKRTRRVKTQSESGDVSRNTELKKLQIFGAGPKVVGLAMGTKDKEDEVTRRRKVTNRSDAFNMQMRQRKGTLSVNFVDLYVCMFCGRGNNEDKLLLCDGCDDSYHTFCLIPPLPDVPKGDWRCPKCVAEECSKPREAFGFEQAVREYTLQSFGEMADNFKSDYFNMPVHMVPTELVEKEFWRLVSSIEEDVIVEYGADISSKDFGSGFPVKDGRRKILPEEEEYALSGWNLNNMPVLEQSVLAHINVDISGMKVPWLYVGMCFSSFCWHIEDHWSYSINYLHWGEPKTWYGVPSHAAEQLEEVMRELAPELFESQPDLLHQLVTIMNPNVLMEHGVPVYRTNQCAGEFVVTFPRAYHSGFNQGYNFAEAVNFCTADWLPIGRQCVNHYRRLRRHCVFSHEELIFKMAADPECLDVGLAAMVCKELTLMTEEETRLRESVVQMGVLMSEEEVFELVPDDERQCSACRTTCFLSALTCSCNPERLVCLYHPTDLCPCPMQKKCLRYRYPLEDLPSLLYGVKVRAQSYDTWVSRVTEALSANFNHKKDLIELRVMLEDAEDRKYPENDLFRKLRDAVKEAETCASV

KDM5A1–797 [2] = molecular target: T1, KDM5A1–797; format: biochemical; settings: for KDM5A1–797 activity normalized to the 18mer WT peptide reaction (100%): H3K4me3 basic patch mutant/deletion peptides

Substance	kcat (KDM5A1–797 [1])	fold increase of KMapp relative to 21mer WT peptide (KDM5A1–797 [1])	further results
T6A: 21mer H3K4me3 peptide with T6A mutation	0.075 ± 0.004 s⁻¹	~ 8 fold	
T6S: 21mer H3K4me3 peptide with T6 mutated to serine	0.070 ± 0.002 s⁻¹		
WT: H3 N-terminal 21mer (aa A1-A21) H3K4me3 wild-type peptide substrate	0.052 ± 0.001 s⁻¹		
T6V: 21mer H3K4me3 peptide with T6 mutated to valine	0.050 ± 0.003 s⁻¹	3 fold	
H3K18me3 (aa 12—32): H3 peptide aa 12—32 trimethylated at K18			demethylation of H3K18me3 peptide by KDM5A1—797 (KDM5A1–797 [2]; peptide incubated with KDM5A1—797 (Figure S3)): no demethylation was detected
Q5A: 21mer H3K4me3 peptide with Q5A mutation	0.056 ± 0.003 s⁻¹	> 30 fold	KDM5A1–797 activity normalized to the 21mer H3K4me3 WT peptide reaction (100%) (KDM5A1–797 [2]; 21mer H3K4me3 alanine mutant peptides, two independent experiments): ~ 20%
T3A: 21mer H3K4me3 peptide with T3A mutation	0.056 ± 0.001 s⁻¹		
R8A: 21mer H3K4me3 peptide with R8A mutation	0.054 ± 0.002 s⁻¹	~ 4 fold	
18mer-K14A/R17A/K18A: 18mer H3K4me3 peptide, K14A/R17A/K18A triple mutant (ART[Lys(Me3)]QTARKSTGGAAPAA; UniProt P68431 2-19, looked up, variant K14A R17A K18A)			fold increase of KMapp compared to the 18mer WT peptide (KDM5A1–797 [1]): 8 fold; KDM5A1–797 activity normalized to the 18mer WT peptide reaction (100%) (KDM5A1–797 [2]; two independent experiments): 28%−35%
R2A: 21mer H3K4me3 peptide with R2A mutation	0.069 ± 0.002 s⁻¹	~ 12 fold	fold rescue in demethylation in the presence of the effector peptide (KDM5A1–797 [2]; 20 μM effector (unmodified 10mer H3 peptide), 21mer H3K4me3 mutant peptide): ~ 3 fold
13mer: 13mer H3K4me3 peptide lacking the K14-K18 basic patch (ARTKQTARKSTGG; K4me3; UniProt P68431 2-14, looked up, fragment)			fold increase of KMapp compared to the 18mer WT peptide (KDM5A1–797 [1]): 8 fold; KDM5A1–797 activity normalized to the 18mer WT peptide reaction (100%) (KDM5A1–797 [2]; two independent experiments): 28%−35%
K9A: 21mer H3K4me3 peptide with K9A mutation	0.061 ± 0.002 s⁻¹		
